Results reported in PMC5331858.
One block for each molecule: values may come before it.

Tests used:
[1] = target: CD4-Sho1-SH3-I49A (MYTH bait) (S. cerevisiae); assay: two-hybrid
[2] = target: CD4-Sho1-SH3-ΔAY (MYTH bait) (S. cerevisiae) (UniProt P40073); assay: two-hybrid
Chain of UniProt P40073 (P40073 298-367, stated change not applied): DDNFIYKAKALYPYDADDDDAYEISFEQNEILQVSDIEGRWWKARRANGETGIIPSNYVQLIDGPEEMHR

- fold change relative to wildtype Sho1p SH3 (β-galactosidase, Miller units) [1]: 0.2 fold
- fold change relative to wildtype Sho1p SH3 (β-galactosidase, Miller units) [2]: 0.3 fold
Molecule: Fps1-N (N-terminal soluble domain of Fps1p, NubG MYTH prey) (from UniProt P23900 1-255) (domain or fragment)

- fold change relative to wildtype Sho1p SH3 (β-galactosidase, Miller units) [2]: 0.5 fold
B1: NubG-Pbs2 (full-length Pbs2p MYTH prey) (natural protein)
chain: MEDKFANLSLHEKTGKSSIQLNEQTGSDNGSAVKRTSSTSSHYNNINADLHARVKAFQEQRALKRSASVGSNQSEQDKGSSQSPKHIQQIVNKPLPPLPVAGSSKVSQRMSSQVVQASSKSTLKNVLDNQETQNITDVNINIDTTKITATTIGVNTGLPATDITPSVSNTASATHKAQLLNPNRRAPRRPLSTQHPTRPNVAPHKAPAIINTPKQSLSARRGLKLPPGGMSLKMPTKTAQQPQQFAPSPSNKKHIETLSNSKVVEGKRSNPGSLINGVQSTSTSSSTEGPHDTVGTTPRTGNSNNSSNSGSSGGGGLFANFSKYVDIKSGSLNFAGKLSLSSKGIDFSNGSSSRITLDELEFLDELGHGNYGNVSKVLHKPTNVIMATKEVRLELDEAKFRQILMELEVLHKCNSPYIVDFYGAFFIEGAVYMCMEYMDGGSLDKIYDESSEIGGIDEPQLAFIANAVIHGLKELKEQHNIIHRDVKPTNILCSANQGTVKLCDFGVSGNLVASLAKTNIGCQSYMAPERIKSLNPDRATYTVQSDIWSLGLSILEMALGRYPYPPETYDNIFSQLSAIVDGPPPRLPSDKFSSDAQDFVSLCLQKIPERRPTYAALTEHPWLVKYRNQDVHMSEYITERLERRNKILRERGENGLSKNVPALHMGGL
